The values that follow come from the DeepSol protein solubility set.

This series can be described thus: soluble on expression in E. coli; label from the status in PepcDB or PDB records.
On to “MGSDKIHHHHHHMIDLHCHILPNIDDGAKSIDEAIALVALAAEQGVSRMVATPHIHLGIYDNNLQSINAAYHLLCDALALTNIDIQLRAAAEVRVSPEIMLFIEQQQLPFLGRYQQKDVLLLELPSSHIPPGTDKLISWLLAKNVLPMIAHPERNRELQSHPERITPFVRAGCLFQLTAASLIGDMGEAPKQLSEYFIKQKLYSIIGSDCHSLNRRPPKLLQAQHAVTALTDQEYAFALTTSMPGSISNVLFAESSD”, for which the “soluble on expression in E. coli” value was “not soluble”. The same measure for “MGSDKIHHHHHHDLDENVYDKLPTDEFGTTEKQINAIMAPAYQSLKNMLAYDGPWGAADMTADILIAPTRVGGDWWDGGQYMEQCMHSWKPNSYSVENCWTYCTEGLTTVNSVYNIIEKSEAMSDELKLQYLSELRGLRAFWYYVIVDIFGNAPLVTDFEDTSLPSITSRADLYKYVVKELTEIIPNLRSDVSDASYGKFTQGAARMVLAKMYLNAEEWIGEPNWKGVVEQCDEIMKLEYIIEPNWKTNFEVHNEVSREIIFPICYKASDAWGNSIHLWTLHYLDPDVLGFTGGMWNGINAQPDFVRTFDTEDPRYEGSFLIGPMIDPSTGEILKTTLGHDLIHTIDLNVVPGTEKTDADGNLTPWGEVHQEDGARINKWVYEKGMQNTNMENDIAIFRLADVYLMKAEALVRMGGDLGEATRLVNAIRERAYGNSDHNYTSVTLDDIYNERGYELAFEFVRRQDMIRFGTYLKPRYMKPKQTPEYRKIFPIPFKAWQKNNNLVQNPGYPAF”: “not soluble”; for “MSLTKEAIISYLSSDLFKGVGKKTAQNIVNTLGDNAINDILDDHSVLEKVSGLSKKKQKQIAEQISANQESEKIMIRLHDLGFGPKLSMAIYQFYLGDTLTILDRNPYQLIYDIKGIGFNKADQLARNIGIAYNDNERLKAALLYTLEEECIKQGHTYLPINVVIDLTVDVLNYQDEEVIEPEKLDEMLQYLNEEKRLIIDNEQVAIPSLYYSEIKSVQNLFRIKTHTNKLTEIEQSDLQMHIGEIEDANQVNYAASQKEALQTAINSKVMLLTGGPGTGKTTVIKGIVELYAEIHGLSLDYDDYVNDDYPVVLAAPTGRASKRLQESTGLEAMTIHRLIGWNQDTKPEDILENEINARLIIIDEMSMVDTWLFHQFLSAVPLDAQLIFVGDEDQLPSVGPGQVFKDLIESKAIPRVNLTEVYRQQDGSSIIELAHRMKLGQKIDITQRFHDRSFINCQANQIPTVVEKVVTSAVNKGYTMADIQVLAPMYKGNAGIKRLNQVLQDILNPKKKDTREIEFGDVVFRKGDKVLQLVNRPNDNIFNGDIGVIVGIFWAKENALNKDVLVVDFEGNEITFTKQDMMELTHAYCTSIHKSQGSEFPIVIMPIVKQYFRMLQRPILYTGLTRAKTSLVLLGDPEAFDIGLKTNGQARLTQLCTLLKNYFNSEGHHHHHH”: “soluble”; for “MGSDKIHHHHHHMQIKNTQLGHIAWCETTAQHIAPQDFAVDGWREKNAVVGQSKGRYTTWFVKTDNSDSPQTWVLRHYWRGGMMEKFSRDAYFYTGLQRTRAVAELAILEVLYQEGFAVPRPIAANVERFGLWYRADIIIEHVAGANDLVAYLSHNPMTESQWYLLGETIAKFHQRGVYHADLNAKNILLAHGEFYLIDFDRGELRTPQPTWQQANLDRLLRSFNKEHAKLTTLQFSQQHWLQLLAGYQSINPI”: “not soluble”. The same measure for “EDLGYFCVDNLPPSLLPKFLELMKESNSKMSKVALVMDLRGREFFDRLIEALDEMAENPWITPRILFLDAKDSILVTRYKETRRSHPLAATGLPLEGIALERELLEELKGRSQIIYDTSDMKPRDLREKIVKHFATNQGETFTVNVMSFGFKYGIPIDADLVFDVRFLPNPYYIESMRPLTGKDKEVSSYVMKWNETQKFNEKLIDLLSFMLPSYKREGKSQVVIAIGCTGGQHRSVTLAENLADYFKKDYYTHVTHRDIEKR”: “not soluble”. Turning to “SLQNNQPVEFNHAINYVNKIKNRFQGQPDIYKAFLEILHTYQKEQRNAKEAGGNYTPALTEQEVYAQVARLFKNQEDLLSEFGQFLPDA”, the “soluble on expression in E. coli” value is “soluble”. With “MGSDKIHHHHHHMDSSMPSTPHASAYPIGKPGQVWGEEEKSLWLNKQVIQRSYAEQVLALILDPASISANTADPMETTATQSNAHPEITSALELVHYNTLAYNTLHQGASDYPVYLFKSRHWDETKPNVLITGGVHGYETSGVQGAIRFLRTKAQHYCQHANLIIVPCLSPWGYETINRWNPHAIDPNRSFVHDTAPHDTAMTQAKAQASKVQLSDVQEAHALMAALGELAVNFSLHIDLHETTDSDNAEFRPALAARDGTSYDNWDIPDGFYLVGDTLKPQAEFQKAVINAVNAITHIAPAGEHARLIGVPIAQFGVINYPTKALGLCAGMTDATYCTTTEVYPDSPLVDDENCILAQVAAITGALDYVIKNR” the entry was “not soluble”. The same measure for “SLRIREIEPIVLTSKEKGSATWASIMIVTRVITENGEVGYGEAVPTLRVISVYNAIKQVSKAYIGKEVEEVEKNYHEWYKQDFYLARSFESATAVSAIDIASWDIIGKELGAPIHKLLGGKTRDRVPVYANGWYQDCVTPEEFAEKAKDVVKMGYKALKFDPFGPYYDWIDERGLREAEERVKAVREAVGDNVDILIEHHGRFNANSAIMIAKRLEKYNPGFMEEPVHHEDVIGLRKYKASTHLRVALGERLISEKETAFYVEEGLVNILQPDLTNIGGVTVGRSVIKIAEANDVEVAFHNAFGSIQNAVEIQLSAVTQNLYLLENFYDWFPQWKRDLVYNETPVEGGHVKVPYKPGLGVSINEKIIEQLRAEPIPLDVIEEPVWVVKGTWKNYGV”: “not soluble”; for “MTDTNTLLVTSLEEGIGKTAITLALATRAHDAGYDVGYMKPKGTRLRSAVGKTRDEDPMLARELLDLETDLHDMEPIVYSPTFIQEAIRGREDPDDLRERLQEGIETCSDGTDMLLVEGSSDLATGSIVDLTDIDIAELLDARVLLVTGYDTPSDTDEILSAAEAIGDRLDGVLFNGVTDATVDELADDVVPFLEGEGIPVHGILPRDRSLAGVTVADLARNLGADILTGDANTDVHVERFSVGAMSGSSALERFRRTRDAVVVTGGDRSEVQTAALEASGINALLLTGGFQPASAVIGQAAEKNVPVLSVQSDTRTTIDRVEEVLRTGQTRNEATVDRMRTLLDDGVDVESLLSVDLLEHHHHHH”: “soluble”. Turning to “MIEADYLVIGAGIAGASTGYWLSAHGRVVVLEREAQPGYHSTGRSAAHYTVAYGTPQVRALTAASRAFFDNPPAGFCEHPLLSPRPEMVVDFSDDPEELRRQYESGKALVPQMRLLDAEQACSIVPVLRRDKVFGATYDPTGADIDTDALHQGYLRGIRRNQGQVLCNHEALEIRRVDGAWEVRCDAGSYRAAVLVNAAGAWCDAIAGLAGVRPLGLQPKRRSAFIFAPPPGIDCHDWPMLVSLDESFYLKPDAGMLLGSPANADPVEAHDVQPEQLDIATGMYLIEEATTLTIRRPEHTWAGLRSFVADGDLVAGYAANAEGFFWVAAQGGYGIQTSAAMGEASAALIRHQPLPAHLREHGLDEAMLSPRRLSPLEHHHHHH”, the “soluble on expression in E. coli” value was “not soluble”. The same measure for “SMRPPIVIHSSGKKYGFSLRAIRVYMGDSDVYTVHHVVWSVEDGSPAQEAGLRAGDLITHINGESVLGLVHMDVVELLLKSGNKISLRTTALENTETSV”: “soluble”. With “MSLGGNGREKDHASELRSIFSLKKIADAVNGYEEAKYVVFGIPFDNTSSYRRGSKYAPDSIRGAYVNLESYEYSYGIDLLASGMADLGDMEESEDVEYVIDTVESVVSAVMSDGKIPIMLGGEHSITVGAVRALPKDVDLVIVDAHSDFRSSYMGNKYNHACVTRRALDLLGEGRITSIGIRSVSREEFEDPDFRKVSFISSFDVKKNGIDKYIEEVDRKSRRVYISVDMDGIDPAYAPAVGTPEPFGLADTDVRRLIERLSYKAVGFDIVEFSPLYDNGNTSMLAAKLLQVFIASREKYYKEHIEGHHHHHH” the entry was “soluble”.

Take “MFIPSIYLHQQLHYCKTAILNWSRKMALSRQKFTFERLRRFTLPEGKKQTFLWDADVTTLACRATSGAKAFVFQSVYAGKTLRMTIGNINDWKIDDARAEARRLQTLIDTGIDPRIAKAVKIAEAESLQAESRKTKVTFSVAWEDYLQELRTGISAKTKRPYSTRYIADHINLSSRGGESKKRGQGPTSAGPLASLLNLPLSELTPDYIAAWLSTERQNRPTVTAHAYRLLRAFIKWSNYQKKYQGIIPGDLAQDYNVRKMVPVSASKADDCLQKEQLKSWFSAVRSLNNPIASAYLQVLLLTGARREEIASLRWSDVDFKWSSMRIKDKIEGERIIPLTPYVSELLNVLAQSPNSDVNKEGWVFRSNSKSGKIIEPRSAHNRALVLAELPHISLHGLRRSFGTLAEWVEVPTGIVAQIMGHKPSALAEKHYRRRPLDLLRKWHEKIETWILNEAGITIKNNVDMR”: the “soluble on expression in E. coli” value is “soluble”. The same measure for “MGSDKIHHHHHHMTFDANDVVRRLGARLKMRHLMLLLQIQQHGSLTRVAEHMASSQPAVTNALSELESMFGTPLFERTSRGMRPTALGSVVLERARAMLKDLDHLAREMEAVAAGHAAHLHIGVIPFISGQMLSAALKRLQSRMERRLTVTIHEGTSDQLLLQLKDHSVDLVIGRASSAIDLGQVSFEVLYQQQPRMIASRRLAAKLARTKLDWQKLHALDWILGAPHTPMREQVTDLFLSAGIAPPVPIVESYSSKLIGEMIASSDDAVSIVPADIAEEMVRIAGVAIVPYSLVWTLPPIALFTRAGESHAPTRDLLVQALREICRETYVEVPR”: “not soluble”. With “MGHHHHHHSHDQLDRAGVAAVALSGGEPTIHPHFLRIVKELSSRGIHTSVATNGWTFADKEKLEEAVKAGLKYVEISVDSAKPEKHDEFRGIPGAWERAIKALENAVEIGVSHGMAVIMDKETYQEMDDILDLAESIGVKRVIFFNLVPTGRAEDMVKVDLTPEEREEFLKELYHQMKKRKLEILTTAPQYARVTLIESQGKNVSPAHFYVGQNTAVKTLAEFIGGCGAGRIYAGIEPDGTVVPCVFL” the entry was “not soluble”. On to “MARSIDYGNLMHRAMRGLIQSVLEDVAEHGLPGAHHFFITFDTTHPDVAMADWLRARYPQEMTVVIQHWYENLSADDHGFSVTLNFGNQPEPLVIPFDAVRTFVDPSVEFGLRFETHEEDEEEETGGDEDPDGDDEPPRHDAQVVSLDKFRKAAALEHHHHHH”, for which the “soluble on expression in E. coli” value is “soluble”. The same measure for “MSLDEPTDGTGAGTSATEMLDSLEVKGRAPKTGYKRTQFGKAWADVDHNGCDTRNDILNRDLTGVRHKWRTHNCVVKSGKLHDPYTGKDIKFKKGKKTSTAVQIDHVVALSDAWQKGAQKLSEERRTALANDPYNLMAVQGRANQKKSDGDAATWMPSNKGFRCEYVARQIGVKHKYSLWVTQAEKEAMAKVLSSCPTQTVPDYTGVKDSTAEKTTESEQTEQTQTEQSAEQAQQTQQTTQAPAPEPAPAPAPAPQPAPQQDVYYQNCTAARAAGAAPIYQGQPGYRSQLDRDHDGVACEEGHHHHHH”: “soluble”; for “HKRPVPAKRYDNVTILFSGIVGFNAFCSKHASGEGAMKIVNLLNDLYTRFDTLTDSRKNPFVYKVETVGDKYMTVSGLPEPCIHHARSICHLALDMMEIAGQVQVDGESVQITIGIHTGEVVTGVIGQRMPRYCLFGNTVNLTSRTETTGEKGKINVSEYTYRCLMSPENSDPQFHLEHRGPVSMKGKKEPMQVWFLSRKNTGTEETKQDDDAENLYFQ”: “soluble”. With “MINLRWPLNWLKLQSSHGQRLNSQLNLIHSRKWIDFDEQIVGTWKLASSENCPNFIEWFGIEKKKSNYGYYNDLTQAKLNENLVFKMNYNNIVGIPKLFPHMSEKTVRENRHIKTTDDRSLKLTIDRYIDMGKLNVTMELKVNEGKHVCTCKLVYDRVYY” the entry was “not soluble”.

Regarding “RRLIRLSDKTIAKSLNTSKFGGDELRRIGFHIRFHRAGALFARCWLLVEGETEVWLFNELARQCGYDLAAEGVQIVEFAQSGLRSLIKVAKEFGIDWHVVTDGDPAGKKYAHTVRAQLGHDQERHRLTELPDRDIEHFLYNHGFELFFKDMIKVPHDHPIPAKKVVNRVLKKHAKPDLALAIVSHCEEKGMECIPVLLRWTLKRIVTMASGNT”, the “soluble on expression in E. coli” value is recorded as “not soluble”.
